In US20160122387A1, “Angiotensin Peptide and Pharmaceutical Compositions for Disease Treatment” (UNIVERSIDADE FEDERAL DE MINAS GERAIS - UFMG, priority 2012, published 2016):
Square brackets hold non-standard residues; d marks the D form. Ends that are not written are not given here.

What was measured:
Mas receptor [1] = target: T1, Mas receptor (Rattus norvegicus, UniProt P12526); test: Vasorelaxation in SHR mesenteric rings in the presence of Mas receptor antagonist A-779
T1 construct: from tissue; host or cells: SHR rat thoracic aorta rings and mesenteric artery rings
T1 sequence (P12526 1-324): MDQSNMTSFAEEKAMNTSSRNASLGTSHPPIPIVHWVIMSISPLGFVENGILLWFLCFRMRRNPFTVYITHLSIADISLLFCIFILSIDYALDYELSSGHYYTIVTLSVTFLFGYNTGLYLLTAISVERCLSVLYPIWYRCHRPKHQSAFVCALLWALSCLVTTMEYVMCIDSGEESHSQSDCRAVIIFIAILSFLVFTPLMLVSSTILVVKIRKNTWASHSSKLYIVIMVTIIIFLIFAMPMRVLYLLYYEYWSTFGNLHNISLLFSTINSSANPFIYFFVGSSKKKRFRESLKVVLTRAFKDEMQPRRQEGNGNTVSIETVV
Procedure: Rings (2.0 mm) of mesenteric artery (2nd and/or 3rd branches) in spontaneously hypertensive rats (SHR), free from adipose and connective tissue, were maintained in a gasified solution (95% 02 and 5% CO2) of Krebs-Hanseleit, at 37° C. After a 15 minute stabilization period, the artery was stretched, gradually, to a resting tension considered optimal with respect to its inner diameter. For this, in each arterial segment, the voltage/diameter was calculated by internal circumference which corresponds to a transmural pressure of 100 mmHg for a relaxed vessel in situ (IC100) using software specific for standardization resistance arteries. For the experiments, the arteries were maintained with an internal circumference, IC1, calculated using the formula IC1=0.90×IC100, in which the development of strength is maximum, as previously described by Mulvany and Halpern (1977). The effective luminal diameter was determined according to the I1=IC1/π equation. […]
The presence of functional endothelium was assessed by the ability of acetylcholine [ACh] […] The mechanical activity was recorded isometrically using a myograph, which was connected to a system for data acquisition and to a computer.
The SHR vessels were pre-contracted with sub-maximal concentrations of phenylephrine (0.1 μmol/L). […] The result was expressed as a percentage of decrease in peak concentration induced by phenylephrine. […]

Mas receptor [2] = target: T1, Mas receptor; test: Vasorelaxation in SHR aortic rings in the presence of Mas receptor antagonists A-779 and D-Pro
Procedure: Three- to four-mm rings of the descending thoracic aorta in spontaneously hypertensive rats (SHR), free from adipose and connective tissue, were maintained in a gasified solution (95% 02 and 5% CO2) of Krebs-Henseleit, at 37° C. under a tension of 1.0 g for 1 hour for stabilization. The presence of functional endothelium was assessed by the ability of acetylcholine [ACh] (10 μmol/L) to induce more than 70% relaxation of vessels pre-contracted with phenylephrine (0.1 μmol/L). The mechanical activity, recorded isometrically by a force transducer, was fed into a recorder-amplifier and a computer equipped with an analog-digital converter board, using CVMS data acquisition/recording software.
The SHR vessels were pre-contracted to the same voltage level (approximately 1.0 g tension) at the submaximal concentration of phenylephrine (0.1 μmol/L). Mas receptor antagonists, A-779 and D-Pro, were added to […] immediately before adding the arg0-Ang-(1-7) in increasing cumulative concentrations. Results are presented as mean±SEM. One-way analysis of variance (ANOVA) with the Newman-Keuls post-test for multiple comparisons was used to compare the concentration response curves obtained in the aortic rings. The result was expressed as the percentage of decrease in peak concentration induced by phenylephrine. All statistical analyses were considered significant when p<0.05.

rat receptor Mas (rat) = rat receptor Mas (rat) (UniProt P12526); test: cell-based or functional assay

| Substance | antagonist effect on the vasorelaxation produced by arg0-Ang-(1-7) (Mas receptor [1]) | antagonist effect on the vasorelaxation produced by arg0-Ang-(1-7) (Mas receptor [2]) | Emax of vasorelaxation by arg0-Ang-(1-7) in SHR mesenteric artery rings in the presence of A-779 (rat receptor Mas (rat)) [%] | Emax of vasorelaxation by arg0-Ang-(1-7) in SHR rat aortic rings in the presence of A-779 (rat receptor Mas (rat)) [%] | Emax of vasorelaxation by arg0-Ang-(1-7) in SHR rat aortic rings in the presence of D-Pro (rat receptor Mas (rat)) [%] |
| --- | --- | --- | --- | --- | --- |
| Asp-Arg-Val-Tyr-Ile-His-D-Ala (DRVYIH[dA]) [A-779] | blocked the vasorelaxant effect of the peptide | blocked the vasorelaxant effect of the peptide | – | – | – |
| arg0-angiotensin-(1-7) (peptide) | – | – | 14.1 | 14 | 11 |
